Patent US20100279409A1, “METHOD FOR MODIFYING CELLUAR IMMUNE RESONSE BY MODULATING ACTIVIN ACTIVITY” (priority 2007, published 2010)

What was measured:
[1] = tested on: MoDCs; test: qRT-PCR kinetics of activin receptor mRNA in stimulated MoDCs; assay type: cell-based, human
Procedure: In follow up experiments, the kinetics of gene expression described in Example 1 were studied, by stimulating MoDCs with either of trimeric CD40L or LPS, via quantitative real time PCR, or “qRT-PCR,” using standard methods and primers specific for activin βA and the activin receptor molecules ALK-2, and ALK-4. The primers differed from those used in the RT-PCR work, described supra. Stimulus was accomplished with 2 μg/ml of CD40L trimer, or 100 ng/ml of E. coli derived LPS for anywhere from 2-24 hours. As a control, MoDCs were cultured in GM-CSF plus IL-4 for the same length of time.

[2] = tested on: Human MoDCs; test: Activin-A secretion by stimulated MoDCs; assay type: cell-based; settings: MoDCs in GM-CSF and IL-4, 2-72 hours
Procedure: Human MoDCs were co-cultured, in a medium containing both GM-CSF and IL-4, with one of (i) intact E. coli, (ii) CD40L, (iii) a TLR ligand (LPS, R848, Poly I:C, or Pam3Cys, which bind, respectively, to TLR4, 7/8, 3, and 2/6), or (iv) one of the inflammatory mediators PGE2 or ATP. Culture was carried out for from 2-72 hours. Supernatants were collected, and assayed for activin-A, using standard methods.

[3] = tested on: Human NK cells; test: IFN-γ ELISA of purified NK cells; assay type: cell-based; settings: for IFN-γ production: NK cells
Procedure: A total of 1×10^5 highly purified human NK cells were cultured for 20 hours in medium supplemented with 20 U/ml IL-2, and 10 ng/ml IL-12. Either human recombinant activin-A, or TGF-β was added to the cultures, at concentrations of 10, 50 and 100 ng/ml. Supernatants were then tested for IFN-γ via ELISA, using standard methods. In these experiments 1×10^5 highly purified human NK cells were cultured as above, but were cultured with Poly I:C (10 μg/ml), or LPS (100 ng/ml), with or without 10, 50, or 100 ng/ml of recombinant human activin-A. In some cases, the known compound “SB431542,” which blocks activin-A binding to receptors was added. IFN-γ was then measured via ELISA, or by intracellular cytokine staining after 16 hours of culture, via addition of 1 μg/ml BFA, to prevent cytokine release. The impact of activin-A on production of IFN-γ by NK cells, in the absence of dendritic cells, was ascertained. Purified NK cells (1×10^5) were cultured in 96 well-plants, in media that was supplemented with 20 U/ml IL-2 and 10 ng/ml, IL-12, in the absence of, or with increasing concentrations of either activin-A, or TGF-β. Culture supernatants were assayed for IFN-γ after 24 hours of culture, using ELISAs, as described supra. As in the prior experiments, 1×10^5 purified NK cells were cultured in media supplemented with IL-2 only, or IL-2 plus IL-12, either with or without one of poly I:C or LPS, in the presence or absence of increased levels of activin-A.

[4] = tested on: NK cells; test: NK cell viability by caspase and PI staining; assay type: cell-based, human; settings: 24 hours
Procedure: With respect to testing viability, 1×10^5 purified NK cells were cultured as described supra, in 96 well-plates. After 24 hours of culture, cells were stained with antibodies to polycaspase, caspase 3/7, caspase 8 and PI.

[5] = tested on: NK cells (target cells K562 or Jurkat cells); test: NK cell killing of calcein-labeled target cells; assay type: cell-based, human; settings: 100 ng/ml, 3 days culture, K562 or Jurkat targets, 4 hours
Procedure: 1×10^6 purified NK cells were cultured in 24 well-plates, either with a high dose of IL-2 (100 U/ml), or a combination of 20 U/ml of IL-2 and IL-12. The culturing took place in the absence of either of activin-A or TGF-β or 100 ng/ml of one of them. The culture continued for 3 days.
After the 3 days of culture, the NK cells were combined with target cells K562 or Jurkat cells, at effector (NK cells): target (K562 or Jurkat cells) ratios of 5:1, 2:1, and 0.1:1. The target cells had been labeled with calcein previously. The total number of labeled target cells was 2×10^4, and the mixture was incubated for 4 hours. The efficiency of killing was determined by measuring calcein dye release via spectrometry.

[6] = tested on: NK cells; test: NKp30 expression on NK cells by flow cytometry; assay type: cell-based, human; settings: NK cells after 3 day culture, 100 ng/ml
Procedure: In order to investigate the mechanism behind these differences, the same NK cells were purified and cryopreserved immediately after the 3 day culture period. The cells were thawed, washed, and stained for NCR. NKp30, with expression levels determined via flow cytometry. The level of expression was also determined using “ex vivo” samples, and NK cells that were cultured, without exposure to targets.

[7] = tested on: immature MoDCs; test: Activin-A ELISA of CD40L-stimulated MoDCs with follistatin; assay type: cell-based, human; settings: CD40L 2 μg/ml
Procedure: The early autocrine/paracrine release of activin-A by MoDCs was viewed as a possible potentiating feedback loop to further activin-A production. To test this, immature MoDCs were cultured with 2 μg/ml of CD40L, together with increasing concentrations of follistatin (0-400 ng/ml). Supernatants were collected over a 6 hour period and activin-A was qualified in a standard ELISA.

[8] = tested on: CD8+ T cells co-cultured with MoDCs; assay type: cell-based, human; settings: follistatin 400 ng/ml, nine days, IFN-γ secretion and CD107a expression
[9] = tested on: MoDCs; test: IL-6 and cytokine ELISA of stimulated MoDCs with follistatin; assay type: cell-based, human; settings: for IL-6 production: follistatin 0, 20, 100 ng/ml
Procedure: Prior studies had shown that, in an in vivo LPS challenge model, activin-A is released into the circulatory system rapidly, and can be detected prior to IL-6, and just prior to TNF-α release. […] This was tested by combining MoDCs with trimeric CD40L, or LPS, at a fixed concentration, together with varying concentrations of follistatin (0, 20, and 100 ng/ml) MoDCs were combined with GM-CSF and IL-4 as a control. Supernatants were collected after 4 hours, 24 hours, and 48 hours of culture, and then assayed for IL-6 via a standard ELISA.
Further experiments were then carried out, using trimeric CD40L or concentrations of LPS and follistatin that were even higher (1 ng/ml-150 ng/ml for LPS, and 400 ng/ml for follistatin).

[10] = tested on: MoDCs; test: qRT-PCR of IL-6 mRNA in MoDCs with follistatin; assay type: cell-based, human; settings: follistatin 400 ng/ml
Procedure: When qRT-PCR was carried out, a 15 fold increase in IL-6 mRNA expression was observed 2 hours after MoDC stimulation and the 400 ng/ml dose of follistatin, with a peak at 4 hours, (30 fold), with a decrease over 6-24 hours.

[11] = tested on: MoDCs; test: IL-10 secretion and mRNA in MoDCs with follistatin; assay type: cell-based, human
Excerpt: Supernatants were screened, via standard ELISAs, for a large array of cytokines and chemokines, including pleiotropic IL-10.

[12] = tested on: MoDCs co-cultured with NK cells; test: IFN-γ production in MoDC and NK cell co-culture with follistatin; assay type: cell-based, human
Procedure: The dendritic cells were obtained by culturing CD14^+ monocytes with GM-CSF and IL-4, for 6-7 days, which are standard culture conditions. A sample of 5×10^4 MoDCs were co-cultured with 1×10^5 NK cells, either with or without 400 ng/ml follistatin. As controls, samples of each type of cell were cultured individually.
IFN-γ production was measured, as described supra.
To test this, 5×10^4 immature MoDCs were cultured, in 96 well-plates, in standard media supplemented with 20 U/ml IL-2 and 20 ng/ml GM-CSF only, or with the addition of 1×10^5 autologous NK cells. In addition, the cells were stimulated with IL-12 and poly I:C. In addition, 400 ng/ml of follistatin was added to cultures in order to neutralize activin-A.
After 24 hours, supernatants were collected, and assayed for IFNγ via a standard ELISA.

[13] = tested on: MoDCs; test: IL-12p35 expression, IL-12p70 and TNF-α secretion by CD40L-stimulated MoDCs; assay type: cell-based, human
Procedure: In view of this, the experiments were extended to investigate the impact, if any on IL-12p70, a potent TH1 cytokine, and pro-inflammatory TNF-α. The experiments were carried out in the same way as the prior experiments were.

[14] = tested on: MoDC; test: Chemokine secretion by CD40L-stimulated MoDCs with follistatin; assay type: cell-based, human; settings: 24 hours, increasing follistatin
Procedure: MoDC culture supernatants were screened following 24 hours of culture, using controls, and increasing concentration of follistatin, as described supra. Assays were carried out, following standard methods, for IL-12p70, TNF-α, IL-8, IP-10, RANTES, and MCP-1.

[15] = CD40L-stimulated MoDCs with follistatin

In the case of “CD40L: trimeric CD40L used to stimulate MoDCs”, the “activin RIIA mRNA” value ([1]; after 2 hours) is reported as “upregulated”, the “ALK-4 mRNA” value ([1]; after 24 hours of stimulation, vs controls) is reported as “significantly higher than controls” and the “ALK-4 mRNA” value ([1]; early in the culture period) is reported as “downregulated”. The “activin RIIB mRNA” value ([1]; over 2-24 hours) was “early down regulation, followed by increases over time”.

Pam3Cys was tested, and the activin-A secretion [2] was “did not”.

For `NC(=O)c1ccc(-c2nc(-c3ccc4c(c3)OCO4)c(-c3ccccn3)[nH]2)cc1` [SB431542, reference compound], the “activin-A suppression of IFN-γ production” value ([3]; added at a concentration of 10 for 30 minutes before activin-A) was “reversed”.

In the case of `CCOCc1nc2c(N)nc3ccccc3c2n1CC(C)(C)O` [R848], the activin-A secretion [2] is reported as “significant amounts of activin-A after 6 hours of stimulation”.

With `CCCCC[C@H](O)/C=C/[C@H]1[C@H](O)CC(=O)[C@@H]1C/C=C\CCCC(=O)O` [PGE2] the activin-A secretion [2] was “neither of these stimulated activin-A release above the levels observed in unstimulated MoDC cultures”.

With TGF-β the “apoptosis (polycaspase, caspase 3/7, caspase 8, PI staining)” value [4] was “no indication of apoptosis”, the IFN-γ production ([3]; IL-2 and IL-12, 20 hours, 10, 50, 100 ng/ml) was “suppressing the production of IFN-γ” and the IFN-γ production ([3]; IL-2 and IL-12, 24 hours, increasing concentrations) was “inhibiting IFN-γ production”. The “killing ability of NK cells” value [5] was “significantly suppressed” and the NKp30 expression [6] was “substantial down regulation of the receptor”.

For Poly I:C [reference compound], the “IFN-γ production induced by stimulus” value ([3]; added to stimulated NK cultures) was “enhanced IFN-γ production” and the activin-A secretion [2] was “significant amounts of activin-A after 6 hours of stimulation”.

With `Nc1ncnc2c1ncn2[C@@H]1O[C@H](COP(=O)(O)OP(=O)(O)OP(=O)(O)O)[C@@H](O)[C@H]1O` [ATP] the activin-A secretion [2] was “neither of these stimulated activin-A release above the levels observed in unstimulated MoDC cultures”.

B1: follistatin (protein, UniProt P19883 30-344, looked up)
Follistatin: GNCWLRQAKNGRCQVLYKTELSKEECCSTGRLSTSWTEEDVNDNTLFKWMIFNGGAPNCIPCKETCENVDCGPGKKCRMNKKNKPRCVCAPDCSNITWKGPVCGLDGKTYRNECALLKARCKEQPELEVQYQGRCKKTCRDVFCPGSSTCVVDQTNNAYCVTCNRICPEPASSEQYLCGNDGVTYSSACHLRKATCLLGRSIGLAYEGKCIKAKSCEDIQCTGGKKCLWDFKVGRGRCSLCDELCPDSKSDEPVCASDNATYASECAMKEAACSSGVLLEVKHSGSCNSISEDTEEEEEDEDQDYSFPISSILEW
For B1, the activin-A production ([7]; follistatin 0-400 ng/ml, first 2-4 hours) was “dose dependent decreases in activin-A production”, the activin-A production ([7]; follistatin 400 ng/ml, at 6 hours) was “unable to abrogate the level of activin-A production” and the “percentage of influenza matrix specific CD8+ T cells displaying effector function” value [8] was “significantly increased”. For the same molecule, the “total number of influenza matrix specific CD8+ T cells displaying effector function” value [8] was “significantly increased”, the IL-6 production ([9]; CD40L-stimulated MoDCs) was “as follistatin concentration increased, so too did IL-6 production” and the “LPS mediated IL-6 production” value ([9]; LPS 1 ng/ml-150 ng/ml, follistatin 400 ng/ml) was “not LPS mediated IL-6 production, at any dose”. The IL-6 production ([9]; LPS-stimulated MoDCs) was “did not influence its production”, the “CD40L mediated production of IL-6” value ([9]; follistatin 400 ng/ml) was “dramatically enhanced” and the MoDC cytokine production ([9]; follistatin alone, no other stimulus) was “did not induce MoDC cytokine production”. For the same molecule, the “increase in IL-6 mRNA expression” value ([10]; 2 hours after MoDC stimulation) was 15 fold, the “increase in IL-6 mRNA expression” value ([10]; peak at 4 hours) was 30 fold and the “IL-10 mRNA expression” value ([11]; CD40L-stimulated MoDCs with follistatin, peak at 4 hours) was “increased IL-10 mRNA expression”. The “CD40L mediated IL-10 secretion” value ([11]; MoDCs with follistatin) was “enhanced IL-10 secretion by the MoDCs in a dose dependent manner”, the “E. coli mediated IL-10 secretion” value ([11]; MoDCs with follistatin) was “did not impact” and the IFN-γ production ([12]; MoDCs co-cultured with NK cells, follistatin 400 ng/ml) was “increased markedly”. For the same molecule, the IFN-γ production ([12]; NK cells alone stimulated with cytokines) was “had no impact”, the IFN-γ production ([12]; immature MoDCs and autologous NK cells, IL-12 and poly I:C, follistatin 400 ng/ml, 24 hours) was “significant increases in IFN-γ production” and the IL-12p70 protein secretion [13, 15] was “dose dependent enhancement”. For the same molecule, the TNF-α secretion [13, 15] was “dose dependent enhancement peaking at 24 hours”, the “IL-12p35 expression vs CD40L alone” value ([13]; at 24 hours, CD40L plus follistatin) was “at least 15 fold” and the IL-12p70 secretion ([13]; follistatin alone, without any other stimulus) was “did not induce IL-12p70 secretion”. The IL-8 production [14] was “substantially enhanced”, the MCP-1 production [14] was “substantially enhanced” and the RANTES production [14] was “substantially enhanced”.
